Reference: patent US20260234276A1 (DOMAIN THERAPEUTICS, published 2026)
Values joined by “and” are separate entries in the source; they are usually repeats but may differ in a detail not shown here. Equal entries are not always repeated.

Columns and labels:
[1] = target: T1, human CCR8 (human, UniProt P51685 1-355); experiment: cell-based or functional assay
[2] = target: T1, human CCR8; experiment: cell-based or functional assay; remark: listed apart in the source
[3] = target: pm5 (human, sulfated tyrosines at Y15 and Y17); experiment: ELISA on coated peptide [cont.]
Chain of pm5 (human, sulfated tyrosines at Y15 and Y17) (peptide, as listed by the source): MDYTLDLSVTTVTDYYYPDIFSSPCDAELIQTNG
Experimental: (§1) The specific binding properties of antibodies were evaluated by ELISA with coated CCR8 related peptides (500 ng/mL) in carbonate/bicarbonate buffer. Different peptides were used as described in Table 1 (see Example 1). Each anti-CCR8 mAb was tested at 1 μg/mL then diluted at 1/10. After an incubation at room temperature during 90 min, unbound mAbs were removed by washings. […] After washings, 3,3′,5,5′-tetramethylbenzidine (TMB) (Interchim, Montlugon, France) was added for 15 min. Then the optical density (OD) was determined by using a multiplate reader (Tecan, Lyon, France) and correlated with mAb reactivity on the panel of coated peptides.

[4] = target: pm6 (human, sulfated tyrosines at Y16 and Y17); experiment: ELISA on coated peptide [cont.]
Chain of pm6 (human, sulfated tyrosines at Y16 and Y17) (peptide, as listed by the source): as above
Experimental: as §1

[5] = target: pm8 (human, sulfated tyrosines at Y15, Y16 and Y17); experiment: ELISA on coated peptide [cont.]
Chain of pm8 (human, sulfated tyrosines at Y15, Y16 and Y17) (peptide, as listed by the source): as above
Experimental: as §1

[6] = target: pm3 (human, sulfated tyrosine at Y17); experiment: ELISA on coated peptide [cont.]
Chain of pm3 (human, sulfated tyrosine at Y17) (peptide, as listed by the source): as above
Experimental: as §1

[7] = target: T1, human CCR8; experiment: flow cytometry, hCCR8 transfected CHOK1 cells
Experimental: Briefly, 1·10⁵ cells per well in a 96 well plate were incubated with a dilution of unconjugated anti-CCR8 mAb at 10 μg/mL then diluted at 1/3.33, 4 dilution points (during 30 min at 4° C.). […] To determine EC50 value, 8 concentrations of anti-CCR8 mAb were tested. Unbound antibodies were washed away with PBS (Invitrogen by Thermofisher Scientific, Illkirch-Graffenstaden, France) supplemented by 2% Fetal Bovine Serum (Invitrogen by Thermofisher Scientific, Illkirch-Graffenstaden, France) and 2 mM EDTA (Invitrogen by Thermofisher Scientific, Illkirch-Graffenstaden, France). Subsequently, cells are centrifuged (5 min at 400 g) and bound antibody is detected with F(ab′)₂-Goat anti-Mouse IgG (H+L) Cross-Adsorbed Secondary Antibody, Alexa Fluor 488 (dilution 1/500) (Invitrogen by Thermofisher Scientific, Illkirch-Graffenstaden, France) or with F(ab′)₂-Goat anti-Human IgG Fc Secondary Antibody, PE (Invitrogen by Thermofisher Scientific, Illkirch-Graffenstaden, France) (dilution 1/1000) at 4° C. for 30 min. Detection reagent is washed away and cells are centrifuged (5 min at 400 g) and resuspended in 30 μL PBS. Bound detection antibody is quantified on a MacsQuant16 (Miltenyi, Gladbach, Germany) (B1 or B2 channel, 5000 events per acquisition).

Binder | IC50 (Gi2 BRET, pH 6.5) [1] | IC50 (Gi2 BRET, pH 7.4) [1] | hCCL1 (100 nM) residual response, Protocol #2, mAb 0.08 µg/mL [2] [%] | hCCL1 (100 nM) residual response, Protocol #2, mAb 0.4 µg/mL [2] [%] | hCCL1 (100 nM) residual response, Protocol #2, mAb 10 µg/mL [2] [%] | hCCL1 (100 nM) residual response, Protocol #3, mAb 0.05 µg/mL [2] [%] | hCCL1 (100 nM) residual response, Protocol #3, mAb 0.5 µg/mL [2] [%] | hCCL1 (100 nM) residual response, Protocol #3, mAb 5 µg/mL [2] [%] | binding result [3] | binding result [4] | binding result [5] | binding result [6] | % positive cells [7] [%] | MFI fold change to isotype ctrl [7] [fold]
3-48 (antibody, V domains shown) VH: QVQLVETGGGLVRPGNSLKLSCVTSGFTFSNYRMHWLRQPPGKRLEWIAVIKVKSDNYGANYAESVKGRFTISRDDSKSSVYLQVNRLREEDTATYYCSSPTYPGSSGFAYWGQGTLVTVSA VL: DIQMTQTTSSLSASLGDRVTISCRASQDISNYLNWYQQKPDGTVKLLIYYTSRLHSGVPSRFSGSGSGTDYSLTISNLEQEDIATYFCQQGNKFPPTFGGGTKLEIN | 0.014 µg/ml and 0.095 nM | 0.004 µg/ml and 0.026 nM | 93 | 89 | 48 | 92 | 68 | 50 | binds | binds | binds | binds | 83 | 17.6
3-14 (antibody, V domains shown) VH: EVQLVESGGGLVQPTGSLRLSCAASGFTFNAYAMNWVRQAPGKGLEWVARIRSKSNDYATYYGDSVKDRFTISRDDSQSMLYLQMNNLKTEDTAMYYCVRGREAYYRYDGGYYAMDYWGQGTSVTVSS VL: DIVMTQAAPSVSVTPGESVSISCTSSKSLLHSNGNTYLYWFLQRPGQSPQLLIYRMSNLASGVPDRFSGSGSGTAFTLRISRVEAEDVGVYYCMQHREYPFTFGSGTKLEIK | 0.034 µg/ml and 0.225 nM | 0.065 µg/ml and 0.434 nM | 72 | 49 | 28 | 75 | 36 | 22 | binds | binds | binds | binds | 66.8 | 5.06
3-45 (antibody, V domains shown) VH: EVQLVETGGGLVQPKGSLKLSCAASGFTFNANAMNWVRQAPGKGLEWVARIRSKSNNYATYYADSVKDRFTISRDDSQSMLYLQMNNLKTEDTAMYYCVRGSDNYIFYAMDYWGQGTSVTVSS VL: DIVMTQAAPSVPVTPGESVSISCRSSKSLLHSNGNTYLYWFLQRPGQSPQLLIYRMSNLASGVPDRFSGSGSGTAFTLRISRVEAEDVGVYYCMQHLEYPFTFGGGTKLEIK | 0.031 µg/ml and 0.208 nM | 0.017 µg/ml and 0.115 nM | 99 | 85 | 68 | 86 | 75 | 48 | binds | binds | binds | binds | 67.8 | 6.11
3-30 (antibody, V domains shown) VH: EVQLVESGGGLVQPKGSLRLSCAASGFTFNAYAMNWVRQAPGKGLEWVARIRSKSNNYATYYGDSVKDRFTISRDDSQTMLYLQMNNLKTEDTAMYYCVRGREAYYRYDGDYYAMDYWGQGTSVTVSS VL: not shown | 0.053 µg/ml and 0.355 nM | 0.063 µg/ml and 0.421 nM | 70 | 44 | 51 | 78 | 55 | 43 | binds | binds | binds | binds | 68.5 | 5.12
3-32 (antibody, V domains shown) VH: EVQLVESGGGLVQPKGSLKLSCAASGFTFNAYAMNWVRQAPGKGLEWLARIRSKSNNYATYYADSVKDRFTISRDDSQSMFYLQMNNLKSEDTAMYYCVRGREAYYRYDGGYYAMDYWGQGTSVTVSS VL: EIVMTQAALSAPVTPGESVSMSCRSSKSLLHSNGNTYLYWFLQRPGQSPQLLIYRMSNLASGVPDRFSGSGSGTAFTLRISRVEAEDVGVYYCMQHLEYPFTFGSGTKLEIK | 0.071 µg/ml and 0.476 nM | 0.089 µg/ml and 0.596 nM | 88 | 57 | 46 | 73 | 36 | 36 | binds | binds | binds | binds | 81.8 | 16.2
3-28 (antibody, V domains shown) VH: EVQLQQSGPELLKPGTSVKISCTTSGYTFSDYTLHWVKQSHGKSLEWIGGITPKNGDTRYDPRFKDKATLTIDKSSSAAYMELRSLTSEDSAVYYCARVARFYGVSPYAMDYWGQGASVTVSS VL: DVVMTQTPLSLPVSLGDQASISCRCTQSLLHSNGDTYLHWYLQKPGQSPKLLIYKVSNRFSGVPDRFSGSGSGTDFTLEITRVEAEDLGVYFCSQTTHVPYTFGGGTKLEIK | 0.044 µg/ml and 0.292 nM | 0.061 µg/ml and 0.405 nM | 79 | 38 | 17 | 102 | 64 | 47 | binds | binds | binds | binds | 81.1 | 10.7
3-29 (antibody, V domains shown) VH: QVHLVETGGGLVRPGNSLKLSCVTSGFTLSNYRMHWLRQPPGKRLEWIAVIKVKSDNYGANYAESVKGRFTISRDDAKSSVYLQMNRLREEDTATYYCSRPDGFSPFVYWGQGTLVTVSA VL: DIKMTQSPSSMYASLGERVTITCKASQDINSYLSWFQQKPGKSPKTLIYRANRLVDGVPSRFSGSGSGQDYFLTISSLEYEDMGIYYCLQYGEFPPTFGAGTKLELK | 0.011 µg/ml and 0.073 nM | 0.007 µg/ml and 0.047 nM | 73 | 51 | 24 | 69 | 38 | 30 | binds | binds | binds | binds | 71.3 | 6.26
3-49 (antibody, V domains shown) VH: EVQLQQSGPELVKPGASVKISCKTSGYTFTEYTMHWVKQSHGKSLEWIGGINPNNGDTNYNQKFMGKATLTVDKSSSTAYMELRSLTSEDSAVYYCVRRLLRRGAMDYWGQGTSVTVSS VL: DIVLTQSPASLAVSLGQRATISCRASENVEYYGTSLMQWFQQKPGQPPKLLIYAASNVDSGVPARFSGSGSGTDFSLNIHPVEEDDIAMYFCQQSRKVPWTFGGGTKLDIK | 0.036 µg/ml and 0.237 nM | 0.006 µg/ml and 0.039 nM | 99 | 102 | 95 | 102 | 97 | 67 | binds | binds | binds | binds | 73.4 | 6.52
